B1: MBP-PML_(46–287) (domain or fragment, human, UniProt P29590 46-287, looked up)
chain: PASEEEFQFLRCQQCQAEAKCPKLLPCLHTLCSGCLEASGMQCPICQAPWPLGADTPALDNVFFESLQRRLSVYRQIVDAQAVCTRCKESADFWCFECEQLLCAKCFEAHQWFLKHEARPLAELRNQSVREFLDGTRKTNNIFCSNPNHRTPTLTSIYCRGCSKPLCCSCALLDSSHSELKCDISAEIQQRQEELDAMTQALQEQDSAFGAVHAQMHAAVGQLGRARAETEELIRERVRQVV
notes: PML (TRIM19), human, residues 46-287; source: E. coli BL21(DE3), purified; not shown: MBP, N-terminal, kept
B2: MBP-PML_(46–323) (domain or fragment, human, UniProt P29590 46-323, looked up)
chain: PASEEEFQFLRCQQCQAEAKCPKLLPCLHTLCSGCLEASGMQCPICQAPWPLGADTPALDNVFFESLQRRLSVYRQIVDAQAVCTRCKESADFWCFECEQLLCAKCFEAHQWFLKHEARPLAELRNQSVREFLDGTRKTNNIFCSNPNHRTPTLTSIYCRGCSKPLCCSCALLDSSHSELKCDISAEIQQRQEELDAMTQALQEQDSAFGAVHAQMHAAVGQLGRARAETEELIRERVRQVVAHVRAQERELLEAVDARYQRDYEEMASRLGRLDAVL
notes: PML (TRIM19), human, residues 46-323; source: E. coli BL21(DE3), purified; not shown: MBP, N-terminal, kept
B3: full-length PML L240R, mammalian two-hybrid fusions (natural protein, human, UniProt P29590-5 1-633, looked up)
chain: MEPAPARSPRPQQDPARPQEPTMPPPETPSEGRQPSPSPSPTERAPASEEEFQFLRCQQCQAEAKCPKLLPCLHTLCSGCLEASGMQCPICQAPWPLGADTPALDNVFFESLQRRLSVYRQIVDAQAVCTRCKESADFWCFECEQLLCAKCFEAHQWFLKHEARPLAELRNQSVREFLDGTRKTNNIFCSNPNHRTPTLTSIYCRGCSKPLCCSCALLDSSHSELKCDISAEIQQRQEERDAMTQALQEQDSAFGAVHAQMHAAVGQLGRARAETEELIRERVRQVVAHVRAQERELLEAVDARYQRDYEEMASRLGRLDAVLQRIRTGSALVQRMKCYASDQEVLDMHGFLRQALCRLRQEEPQSLQAAVRTDGFDEFKVRLQDLSSCITQGKDAAVSKKASPEAASTPRDPIDVDLPEEAERVKAQVQALGLAEAQPMAVVQSVPGAHPVPVYAFSIKGPSYGEDVSNTTTAQKRKCSQTQCPRKVIKMESEEGKEARLARSSPEQPRPSTSKAVSPPHLDGPPSPRSPVIGSEVFLPNSNHVASGAGEAEERVVVISSSEDSDAENSSSRELDDSSSESSDLQLEGPSTLRVLDENLADPQAEDRPLVFFDLKIDNESGFSWGYPHPFLI
notes: PML (TRIM19) isoform IV, full length, L240R; source: HeLa Pml-/- cells, transfected, mammalian two-hybrid fusion
B4: full-length PML L247R, mammalian two-hybrid fusions (natural protein, human, UniProt P29590-5 1-633, looked up)
chain: MEPAPARSPRPQQDPARPQEPTMPPPETPSEGRQPSPSPSPTERAPASEEEFQFLRCQQCQAEAKCPKLLPCLHTLCSGCLEASGMQCPICQAPWPLGADTPALDNVFFESLQRRLSVYRQIVDAQAVCTRCKESADFWCFECEQLLCAKCFEAHQWFLKHEARPLAELRNQSVREFLDGTRKTNNIFCSNPNHRTPTLTSIYCRGCSKPLCCSCALLDSSHSELKCDISAEIQQRQEELDAMTQARQEQDSAFGAVHAQMHAAVGQLGRARAETEELIRERVRQVVAHVRAQERELLEAVDARYQRDYEEMASRLGRLDAVLQRIRTGSALVQRMKCYASDQEVLDMHGFLRQALCRLRQEEPQSLQAAVRTDGFDEFKVRLQDLSSCITQGKDAAVSKKASPEAASTPRDPIDVDLPEEAERVKAQVQALGLAEAQPMAVVQSVPGAHPVPVYAFSIKGPSYGEDVSNTTTAQKRKCSQTQCPRKVIKMESEEGKEARLARSSPEQPRPSTSKAVSPPHLDGPPSPRSPVIGSEVFLPNSNHVASGAGEAEERVVVISSSEDSDAENSSSRELDDSSSESSDLQLEGPSTLRVLDENLADPQAEDRPLVFFDLKIDNESGFSWGYPHPFLI
notes: PML (TRIM19) isoform IV, full length, L247R; source: HeLa Pml-/- cells, transfected, mammalian two-hybrid fusion
B5: full-length PML I279R, mammalian two-hybrid fusions (natural protein, human, UniProt P29590-5 1-633, looked up)
chain: MEPAPARSPRPQQDPARPQEPTMPPPETPSEGRQPSPSPSPTERAPASEEEFQFLRCQQCQAEAKCPKLLPCLHTLCSGCLEASGMQCPICQAPWPLGADTPALDNVFFESLQRRLSVYRQIVDAQAVCTRCKESADFWCFECEQLLCAKCFEAHQWFLKHEARPLAELRNQSVREFLDGTRKTNNIFCSNPNHRTPTLTSIYCRGCSKPLCCSCALLDSSHSELKCDISAEIQQRQEELDAMTQALQEQDSAFGAVHAQMHAAVGQLGRARAETEELRRERVRQVVAHVRAQERELLEAVDARYQRDYEEMASRLGRLDAVLQRIRTGSALVQRMKCYASDQEVLDMHGFLRQALCRLRQEEPQSLQAAVRTDGFDEFKVRLQDLSSCITQGKDAAVSKKASPEAASTPRDPIDVDLPEEAERVKAQVQALGLAEAQPMAVVQSVPGAHPVPVYAFSIKGPSYGEDVSNTTTAQKRKCSQTQCPRKVIKMESEEGKEARLARSSPEQPRPSTSKAVSPPHLDGPPSPRSPVIGSEVFLPNSNHVASGAGEAEERVVVISSSEDSDAENSSSRELDDSSSESSDLQLEGPSTLRVLDENLADPQAEDRPLVFFDLKIDNESGFSWGYPHPFLI
notes: PML (TRIM19) isoform IV, full length, I279R; source: HeLa Pml-/- cells, transfected, mammalian two-hybrid fusion
B6: full-length PML V123R, mammalian two-hybrid fusions (natural protein, human, UniProt P29590-5 1-633, looked up)
chain: MEPAPARSPRPQQDPARPQEPTMPPPETPSEGRQPSPSPSPTERAPASEEEFQFLRCQQCQAEAKCPKLLPCLHTLCSGCLEASGMQCPICQAPWPLGADTPALDNVFFESLQRRLSVYRQIRDAQAVCTRCKESADFWCFECEQLLCAKCFEAHQWFLKHEARPLAELRNQSVREFLDGTRKTNNIFCSNPNHRTPTLTSIYCRGCSKPLCCSCALLDSSHSELKCDISAEIQQRQEELDAMTQALQEQDSAFGAVHAQMHAAVGQLGRARAETEELIRERVRQVVAHVRAQERELLEAVDARYQRDYEEMASRLGRLDAVLQRIRTGSALVQRMKCYASDQEVLDMHGFLRQALCRLRQEEPQSLQAAVRTDGFDEFKVRLQDLSSCITQGKDAAVSKKASPEAASTPRDPIDVDLPEEAERVKAQVQALGLAEAQPMAVVQSVPGAHPVPVYAFSIKGPSYGEDVSNTTTAQKRKCSQTQCPRKVIKMESEEGKEARLARSSPEQPRPSTSKAVSPPHLDGPPSPRSPVIGSEVFLPNSNHVASGAGEAEERVVVISSSEDSDAENSSSRELDDSSSESSDLQLEGPSTLRVLDENLADPQAEDRPLVFFDLKIDNESGFSWGYPHPFLI
notes: PML (TRIM19) isoform IV, full length, V123R; source: HeLa Pml-/- cells, transfected, mammalian two-hybrid fusion
B7: full-length PML F177R, mammalian two-hybrid fusions (natural protein, human, UniProt P29590-5 1-633, looked up)
chain: MEPAPARSPRPQQDPARPQEPTMPPPETPSEGRQPSPSPSPTERAPASEEEFQFLRCQQCQAEAKCPKLLPCLHTLCSGCLEASGMQCPICQAPWPLGADTPALDNVFFESLQRRLSVYRQIVDAQAVCTRCKESADFWCFECEQLLCAKCFEAHQWFLKHEARPLAELRNQSVRERLDGTRKTNNIFCSNPNHRTPTLTSIYCRGCSKPLCCSCALLDSSHSELKCDISAEIQQRQEELDAMTQALQEQDSAFGAVHAQMHAAVGQLGRARAETEELIRERVRQVVAHVRAQERELLEAVDARYQRDYEEMASRLGRLDAVLQRIRTGSALVQRMKCYASDQEVLDMHGFLRQALCRLRQEEPQSLQAAVRTDGFDEFKVRLQDLSSCITQGKDAAVSKKASPEAASTPRDPIDVDLPEEAERVKAQVQALGLAEAQPMAVVQSVPGAHPVPVYAFSIKGPSYGEDVSNTTTAQKRKCSQTQCPRKVIKMESEEGKEARLARSSPEQPRPSTSKAVSPPHLDGPPSPRSPVIGSEVFLPNSNHVASGAGEAEERVVVISSSEDSDAENSSSRELDDSSSESSDLQLEGPSTLRVLDENLADPQAEDRPLVFFDLKIDNESGFSWGYPHPFLI
notes: PML (TRIM19) isoform IV, full length, F177R; source: HeLa Pml-/- cells, transfected, mammalian two-hybrid fusion
B8: full-length PML L178R, mammalian two-hybrid fusions (natural protein, human, UniProt P29590-5 1-633, looked up)
chain: MEPAPARSPRPQQDPARPQEPTMPPPETPSEGRQPSPSPSPTERAPASEEEFQFLRCQQCQAEAKCPKLLPCLHTLCSGCLEASGMQCPICQAPWPLGADTPALDNVFFESLQRRLSVYRQIVDAQAVCTRCKESADFWCFECEQLLCAKCFEAHQWFLKHEARPLAELRNQSVREFRDGTRKTNNIFCSNPNHRTPTLTSIYCRGCSKPLCCSCALLDSSHSELKCDISAEIQQRQEELDAMTQALQEQDSAFGAVHAQMHAAVGQLGRARAETEELIRERVRQVVAHVRAQERELLEAVDARYQRDYEEMASRLGRLDAVLQRIRTGSALVQRMKCYASDQEVLDMHGFLRQALCRLRQEEPQSLQAAVRTDGFDEFKVRLQDLSSCITQGKDAAVSKKASPEAASTPRDPIDVDLPEEAERVKAQVQALGLAEAQPMAVVQSVPGAHPVPVYAFSIKGPSYGEDVSNTTTAQKRKCSQTQCPRKVIKMESEEGKEARLARSSPEQPRPSTSKAVSPPHLDGPPSPRSPVIGSEVFLPNSNHVASGAGEAEERVVVISSSEDSDAENSSSRELDDSSSESSDLQLEGPSTLRVLDENLADPQAEDRPLVFFDLKIDNESGFSWGYPHPFLI
notes: PML (TRIM19) isoform IV, full length, L178R; source: HeLa Pml-/- cells, transfected, mammalian two-hybrid fusion
B9: full-length PML V123R/F177R, mammalian two-hybrid fusions (natural protein, human, UniProt P29590-5 1-633, looked up)
chain: MEPAPARSPRPQQDPARPQEPTMPPPETPSEGRQPSPSPSPTERAPASEEEFQFLRCQQCQAEAKCPKLLPCLHTLCSGCLEASGMQCPICQAPWPLGADTPALDNVFFESLQRRLSVYRQIRDAQAVCTRCKESADFWCFECEQLLCAKCFEAHQWFLKHEARPLAELRNQSVRERLDGTRKTNNIFCSNPNHRTPTLTSIYCRGCSKPLCCSCALLDSSHSELKCDISAEIQQRQEELDAMTQALQEQDSAFGAVHAQMHAAVGQLGRARAETEELIRERVRQVVAHVRAQERELLEAVDARYQRDYEEMASRLGRLDAVLQRIRTGSALVQRMKCYASDQEVLDMHGFLRQALCRLRQEEPQSLQAAVRTDGFDEFKVRLQDLSSCITQGKDAAVSKKASPEAASTPRDPIDVDLPEEAERVKAQVQALGLAEAQPMAVVQSVPGAHPVPVYAFSIKGPSYGEDVSNTTTAQKRKCSQTQCPRKVIKMESEEGKEARLARSSPEQPRPSTSKAVSPPHLDGPPSPRSPVIGSEVFLPNSNHVASGAGEAEERVVVISSSEDSDAENSSSRELDDSSSESSDLQLEGPSTLRVLDENLADPQAEDRPLVFFDLKIDNESGFSWGYPHPFLI
notes: PML (TRIM19) isoform IV, full length, V123R and F177R; source: HeLa Pml-/- cells, transfected, mammalian two-hybrid fusion
B10: full-length PML V123R/L178R, mammalian two-hybrid fusions (natural protein, human, UniProt P29590-5 1-633, looked up)
chain: MEPAPARSPRPQQDPARPQEPTMPPPETPSEGRQPSPSPSPTERAPASEEEFQFLRCQQCQAEAKCPKLLPCLHTLCSGCLEASGMQCPICQAPWPLGADTPALDNVFFESLQRRLSVYRQIRDAQAVCTRCKESADFWCFECEQLLCAKCFEAHQWFLKHEARPLAELRNQSVREFRDGTRKTNNIFCSNPNHRTPTLTSIYCRGCSKPLCCSCALLDSSHSELKCDISAEIQQRQEELDAMTQALQEQDSAFGAVHAQMHAAVGQLGRARAETEELIRERVRQVVAHVRAQERELLEAVDARYQRDYEEMASRLGRLDAVLQRIRTGSALVQRMKCYASDQEVLDMHGFLRQALCRLRQEEPQSLQAAVRTDGFDEFKVRLQDLSSCITQGKDAAVSKKASPEAASTPRDPIDVDLPEEAERVKAQVQALGLAEAQPMAVVQSVPGAHPVPVYAFSIKGPSYGEDVSNTTTAQKRKCSQTQCPRKVIKMESEEGKEARLARSSPEQPRPSTSKAVSPPHLDGPPSPRSPVIGSEVFLPNSNHVASGAGEAEERVVVISSSEDSDAENSSSRELDDSSSESSDLQLEGPSTLRVLDENLADPQAEDRPLVFFDLKIDNESGFSWGYPHPFLI
notes: PML (TRIM19) isoform IV, full length, V123R and L178R; source: HeLa Pml-/- cells, transfected, mammalian two-hybrid fusion

Molecular target: the molecule itself
Experiment: SEC; analytical size exclusion on Superdex 200 Increase 10/300 GL in 20 mM HEPES, pH 7.4, 100 mM NaCl, 4% glycerol; all truncations N-terminally fused to MBP

B1: binds.
B2: binds.

Molecular target: the molecule itself
Experiment: two-hybrid; CheckMate mammalian two-hybrid (Promega) in HeLa Pml-/- cells; pG5-luc, pBIND-PML and pACT-PML at 1:1:1; dual-luciferase read-out 24 h after transfection; normalised to pACT vector:pBIND-PML = 1

Going from B3 to B4, the “percent reduction of PML self-interaction (relative luciferase activity) compared to control” value falls from 83.9% to 75.8%.

Compared with B5, B6 is lower in “percent reduction of PML self-interaction (relative luciferase activity) compared to control” value: 73.7% for the first, 18.5% for the second.

Compared with B7, B8 is lower in “percent reduction of PML self-interaction (relative luciferase activity) compared to control” value: 45.1% for the first, 44.9% for the second.

Going from B9 to B10, the “percent reduction of PML self-interaction (relative luciferase activity) compared to control” value falls from 39.1% to 33.1%.

Reference: publication PMC11589706, “Cryo-EM structure of PML RBCC dimer reveals CC-mediated octopus-like nuclear body assembly mechanism” (Cell Discovery, 2024)
